Assay in all cases: PathHunter β-arrestin assay
Type in all cases: cell-based

The target of one assay is T1, CCR3 (Homo sapiens, UniProt P51677).
T1 construct: purchased Eurofins DiscoverX (PathHunter gpcrMAX)
T1 sequence (P51677 1-355): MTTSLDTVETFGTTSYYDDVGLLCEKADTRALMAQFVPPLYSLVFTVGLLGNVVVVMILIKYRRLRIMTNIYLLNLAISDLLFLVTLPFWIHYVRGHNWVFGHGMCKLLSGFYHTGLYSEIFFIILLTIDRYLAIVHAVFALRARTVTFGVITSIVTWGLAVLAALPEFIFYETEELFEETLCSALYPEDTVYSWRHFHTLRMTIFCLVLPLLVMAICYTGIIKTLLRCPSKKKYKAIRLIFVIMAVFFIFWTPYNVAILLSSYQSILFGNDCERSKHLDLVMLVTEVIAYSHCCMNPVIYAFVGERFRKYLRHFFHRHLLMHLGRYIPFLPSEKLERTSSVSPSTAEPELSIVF
The settings on record: screen, control agonist; CHO, 37C, 2HR.

The next assay addresses T2, CCR7 (Homo sapiens, UniProt P32248).
T2 construct: purchased Eurofins DiscoverX (PathHunter gpcrMAX)
T2 sequence (P32248 25-378): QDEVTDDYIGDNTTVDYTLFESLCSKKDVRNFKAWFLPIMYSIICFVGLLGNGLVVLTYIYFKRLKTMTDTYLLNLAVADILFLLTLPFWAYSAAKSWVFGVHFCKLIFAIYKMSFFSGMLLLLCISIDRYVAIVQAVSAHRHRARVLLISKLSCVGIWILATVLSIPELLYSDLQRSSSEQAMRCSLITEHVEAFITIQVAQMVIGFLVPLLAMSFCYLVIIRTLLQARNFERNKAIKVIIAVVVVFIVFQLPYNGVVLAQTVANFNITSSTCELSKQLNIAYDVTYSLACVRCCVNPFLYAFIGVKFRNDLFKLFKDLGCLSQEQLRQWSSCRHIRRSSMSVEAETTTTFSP
The settings on record: screen, control agonist; CHO, 37C, 2HR.

The next assay concerns the target T3, CXCR1 (Homo sapiens, UniProt P25024).
T3 construct: purchased Eurofins DiscoverX (PathHunter gpcrMAX)
T3 sequence (P25024 1-350): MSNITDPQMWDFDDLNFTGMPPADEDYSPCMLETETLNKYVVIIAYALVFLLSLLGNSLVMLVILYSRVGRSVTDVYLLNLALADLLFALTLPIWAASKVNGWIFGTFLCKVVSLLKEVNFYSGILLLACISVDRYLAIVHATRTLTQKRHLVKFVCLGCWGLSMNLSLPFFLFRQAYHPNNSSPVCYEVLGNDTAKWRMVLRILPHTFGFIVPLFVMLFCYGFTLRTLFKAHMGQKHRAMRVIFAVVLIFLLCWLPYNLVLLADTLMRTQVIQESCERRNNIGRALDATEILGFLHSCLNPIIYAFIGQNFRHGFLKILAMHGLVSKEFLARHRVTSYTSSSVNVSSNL
As to conditions: screen, control agonist; U20S, 37C, 2HR.

For another assay, the target named is T4, CXCR2 (Homo sapiens, UniProt P25025).
T4 construct: purchased Eurofins DiscoverX (PathHunter gpcrMAX)
T4 sequence (P25025 1-360): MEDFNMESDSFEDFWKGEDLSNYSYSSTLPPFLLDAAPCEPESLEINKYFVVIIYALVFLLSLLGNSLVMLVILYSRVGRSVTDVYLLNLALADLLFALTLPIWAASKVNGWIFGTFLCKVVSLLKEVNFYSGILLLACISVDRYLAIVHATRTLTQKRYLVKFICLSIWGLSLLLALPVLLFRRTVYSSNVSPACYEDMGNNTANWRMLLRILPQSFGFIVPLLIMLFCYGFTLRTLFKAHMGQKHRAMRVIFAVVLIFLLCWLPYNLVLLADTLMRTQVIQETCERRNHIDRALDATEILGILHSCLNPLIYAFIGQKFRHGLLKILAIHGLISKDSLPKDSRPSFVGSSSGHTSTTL
The settings on record: screen, control agonist; CHO, 37C, 2HR.

For the next assay, the target named is T5, CALCR (Homo sapiens, UniProt P30988).
T5 construct: purchased Eurofins DiscoverX (PathHunter gpcrMAX)
T5 sequence (P30988 25-474): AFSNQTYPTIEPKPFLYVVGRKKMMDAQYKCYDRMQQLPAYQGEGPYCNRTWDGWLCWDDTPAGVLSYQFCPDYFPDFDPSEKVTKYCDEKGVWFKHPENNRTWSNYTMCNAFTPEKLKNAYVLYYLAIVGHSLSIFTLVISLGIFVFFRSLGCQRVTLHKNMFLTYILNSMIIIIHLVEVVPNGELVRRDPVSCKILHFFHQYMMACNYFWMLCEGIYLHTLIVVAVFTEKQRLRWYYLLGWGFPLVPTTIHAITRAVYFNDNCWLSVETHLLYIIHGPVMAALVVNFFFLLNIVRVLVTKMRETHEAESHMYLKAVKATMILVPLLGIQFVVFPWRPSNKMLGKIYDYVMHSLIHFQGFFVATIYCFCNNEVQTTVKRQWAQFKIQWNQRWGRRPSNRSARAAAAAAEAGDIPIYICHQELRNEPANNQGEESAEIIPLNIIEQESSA
As to conditions: screen, control agonist; U2OS, 37C, 2HR.

A further assay deals with CALCR-RAMP2 (Homo sapiens, UniProt O60895+P30988). The settings on record: control agonist.
In a further assay the target is T6, CALCR-RAMP3 (Homo sapiens, UniProt O60896+P30988).
T6 construct: purchased Eurofins DiscoverX (PathHunter gpcrMAX)
T6 sequence (P30988 25-474): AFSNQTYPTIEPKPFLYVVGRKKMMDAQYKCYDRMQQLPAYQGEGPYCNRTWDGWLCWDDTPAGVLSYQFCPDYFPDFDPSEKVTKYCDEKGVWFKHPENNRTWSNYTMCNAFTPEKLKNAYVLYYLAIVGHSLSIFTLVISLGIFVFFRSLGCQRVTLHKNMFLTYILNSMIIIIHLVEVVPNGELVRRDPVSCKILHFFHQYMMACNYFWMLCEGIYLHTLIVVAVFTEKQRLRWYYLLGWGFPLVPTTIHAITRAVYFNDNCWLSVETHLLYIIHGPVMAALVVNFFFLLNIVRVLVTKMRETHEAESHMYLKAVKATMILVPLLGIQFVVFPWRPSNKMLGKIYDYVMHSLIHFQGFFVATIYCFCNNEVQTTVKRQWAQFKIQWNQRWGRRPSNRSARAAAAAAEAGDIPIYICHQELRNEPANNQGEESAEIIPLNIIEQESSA
T6 sequence (O60896 24-148 partner): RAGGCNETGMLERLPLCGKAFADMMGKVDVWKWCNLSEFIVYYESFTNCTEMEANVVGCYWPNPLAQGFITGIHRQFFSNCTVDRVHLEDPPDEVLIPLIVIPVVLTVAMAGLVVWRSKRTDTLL
The settings on record: screen, control agonist; CHO, RT, 2HR.

The next assay deals with T7, CRHR2 (Homo sapiens, UniProt Q13324).
T7 construct: purchased Eurofins DiscoverX (PathHunter gpcrMAX)
As to conditions: screen, control agonist; CHO, RT, 2HR.

The target of another assay is T8, CX3CR1 (Homo sapiens, UniProt P49238).
T8 construct: purchased Eurofins DiscoverX (PathHunter gpcrMAX)
T8 sequence (P49238 1-355): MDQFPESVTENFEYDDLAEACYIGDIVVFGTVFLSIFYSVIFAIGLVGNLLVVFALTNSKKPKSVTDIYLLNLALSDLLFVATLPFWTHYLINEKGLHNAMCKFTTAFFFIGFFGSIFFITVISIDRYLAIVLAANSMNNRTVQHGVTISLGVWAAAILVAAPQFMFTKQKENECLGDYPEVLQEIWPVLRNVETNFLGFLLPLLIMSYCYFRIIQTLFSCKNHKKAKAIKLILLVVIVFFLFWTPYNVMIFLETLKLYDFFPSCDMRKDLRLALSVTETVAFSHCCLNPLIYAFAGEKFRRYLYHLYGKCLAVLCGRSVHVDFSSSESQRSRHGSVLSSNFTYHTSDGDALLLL
As to conditions: screen, control agonist; CHO, 37C, 2HR.

Sequence of CALCR-RAMP2 (O60895 43-175 partner, one chain of several): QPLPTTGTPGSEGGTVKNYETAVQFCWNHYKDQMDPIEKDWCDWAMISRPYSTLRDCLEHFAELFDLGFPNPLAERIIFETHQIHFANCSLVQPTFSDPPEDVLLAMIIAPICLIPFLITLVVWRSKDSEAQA
T7 sequence (Q13324 whole entry): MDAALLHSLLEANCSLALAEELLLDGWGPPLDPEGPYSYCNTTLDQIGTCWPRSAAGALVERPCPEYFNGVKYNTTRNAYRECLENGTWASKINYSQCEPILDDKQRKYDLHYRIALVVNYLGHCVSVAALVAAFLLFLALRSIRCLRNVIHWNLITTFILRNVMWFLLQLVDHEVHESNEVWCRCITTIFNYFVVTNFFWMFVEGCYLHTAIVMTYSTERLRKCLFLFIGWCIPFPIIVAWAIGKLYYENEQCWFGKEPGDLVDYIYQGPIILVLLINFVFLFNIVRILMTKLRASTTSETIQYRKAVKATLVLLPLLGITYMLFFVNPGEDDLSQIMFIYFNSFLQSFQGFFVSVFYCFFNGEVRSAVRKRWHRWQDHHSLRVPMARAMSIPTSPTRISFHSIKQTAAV

On to CCL13: control agonist, for which the 80% effect concentration (EC80) with CCR3 came to 46.4 nM.
For the molecule CCL19: control agonist, the EC80 in the assay with CCR7 came to 18.9 nM.
For CXCL8: control agonist, the EC80 was found to be 4.95 nM with CXCR1 and 0.953 nM with CXCR2.
Turning to Calcitonin, the EC80 is 37.7 nM with CALCR; 35 nM in the assay with CALCR-RAMP2 (follow-up concentration-response assays); 30.5 nM with CALCR-RAMP2 (screen, CHO, 37C, 2HR); 1150 nM in the assay with CALCR-RAMP3.
As to Sauvagine, on CRHR2, the EC80 was found to be 24.7 nM.

B1: Fractalkine: control agonist (protein, UniProt P78423 25-397, looked up)
Fractalkine: QHHGVTKCNITCSKMTSKIPVALLIHYQQNQASCGKRAIILETRQHRLFCADPKEQWVKDAMQHLDRQAAALTRNGGTFEKQIGEVKPRTTPAAGGMDESVVLEPEATGESSSLEPTPSSQEAQRALGTSPELPTGVTGSSGTRLPPTPKAQDGGPVGTELFRVPPVSTAATWQSSAPHQPGPSLWAEAKTSEAPSTQDPSTQASTASSPAPEENAPSEGQRVWGQGQSPRPENSLEREEMGPVPAHTDAFQDWGPGSMAHVSVVPVSSEGTPSREPVASGSWTPKAEEPIHATMDPQRLGVLITPVPDAQAATRRQAVGLLAFLGLLFCLGVAMFTYQSLQGCPRKMAGEMAEGLRYIPRSCGSNSYVLVPV
In the assay with CX3CR1, B1 registered an EC80 of 1.92 nM.

Source of the values: PMC9798004 (Frontiers in Psychiatry, 2022).
